Data taken from PMC8213764.
“And” between values parts separate entries of the source, which are not always exact repeats. Equal values may be shown once.

Target: Human intelectin-1 (ITLN1) of human ileal lysates, genotype at residue 109 not told for the sentence (human (endogenous in ileum)) (UniProt Q8WWA0)
Assay: non-reducing SDS-PAGE immunoblot; human ileal lysates (150 mM NaCl, 1% Triton X-100, 0.5% sodium deoxycholate, 0.1% SDS, 50 mM Tris pH 8.0), heated at 95 °C for 30 min without 2-mercaptoethanol, gradient SDS-PAGE (4-20%), immunoblot; oligomers stable under denaturing conditions

stoichiometry N: 3 and 6
Substance: Human intelectin-1 (ITLN1) of human ileal lysates, genotype at residue 109 not told for the sentence (from UniProt Q8WWA0 19-298) (natural protein)
